Assay results: patent US20160131656A1 (EXTERNAUTICS S P A, published 2016)

T1: FAT1 recombinant cadherin Domain 8 (amino acid 823 to amino acid 927) (human, UniProt Q14517 826-923, limits assumed)
T1 construct: Recombinant form purified from E. coli, used in ELISA and SPR; Any tag is not described; A His6-V5 tagged version was also expressed in transfected HeLa and HEK-293T cells for Western blot; also called FAT Domain 8
T1 sequence: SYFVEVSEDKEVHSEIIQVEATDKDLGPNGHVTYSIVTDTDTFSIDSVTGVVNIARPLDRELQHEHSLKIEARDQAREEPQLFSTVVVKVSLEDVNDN

T2: FAT1 recombinant cadherin Domain 12 (amino acid 1246 to 1352) (human, UniProt Q14517 1250-1344, limits assumed)
T2 construct: Recombinant form purified from E. coli, used in ELISA, SPR and Western blot; Any tag is not described; also called FAT Domain 12
T2 sequence: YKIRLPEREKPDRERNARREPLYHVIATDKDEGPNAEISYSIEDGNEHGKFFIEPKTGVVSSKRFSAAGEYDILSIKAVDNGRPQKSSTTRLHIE

B1: FAT1 25 mer Peptide 2 (peptide)
peptide: YHVIATDKDEGPNAEISYSIEDGNE
notes: Made by chemical synthesis
B2: FAT1 25 mer Peptide 1 (peptide)
peptide: REPLYHVIATDKDEGPNAEISYSIE
notes: Made by chemical synthesis
B3: FAT1 25 mer Peptide 3 (peptide)
peptide: IQVEATDKDLGPNGHVTYSIVTDTD
notes: Made by chemical synthesis
B4: anti-FAT1 monoclonal antibody mAb91.3 (antibody, V domains shown)
VH: VQLQQSGSELVRPGASVKLSCKASGYTFTRSWMHWIKQRPGQGLEWIGNIYPGSGGTNYDEKFKSKATLTVDTSSSTAYMQLSSLTSEDSAIYYCTRSGGQRFDYWGQGTTLTVSS
VL: IVMTQSPAIMSAFSGEKVTMTCSASSSVSSMHWYQQKSSTSPKFWIYDTSKLASGVPGRFSGSGSGNSYSLTISSMEAEDVATYYCFQGSGYPFTFGGGTKLEIKR
notes: Mouse hybridoma antibody, subclass IgG1k; also called anti-FAT1 mAb91.3; the anti-FAT1 monoclonal antibody

Columns and labels:
[1] = biological target: B4; assay: FACS competition on HCT-15 cells: mAb91.3 incubated with rising peptide concentration; blocked partner is FAT1 on the cell surface
Procedure: For Flow Cytometry analysis, cells (2×10⁴ per well) were pelleted in 96 U-bottom microplates by centrifugation at 200× g for 5 min at 4° C. and incubated for 1 hour at 4° C. with the appropriate dilutions of anti-FAT1-monoclonal antibody. The cells were washed twice in PBS-5% FCS and incubated for 20 min with the appropriate dilution of R-Phycoerythrin (PE)-conjugated secondary antibodies (Jackson Immuno Research, PA, USA) at 4° C. After washing, cells were analysed by a FACS Canto II flow cytometer (Becton Dickinson). Data were analyzed with FlowJo 8.3.3 program.

[2] = biological target: B1; assay: ELISA with 25 mer peptides
Procedure: (§1) For ELISA competition experiments, ELISA plates (Nunc Maxisorp) were coated with 1 μg of the FAT1 recombinant proteins in PBS (pH 7.4) at 4° C. overnight. The plates were washed, treated for 1 h at 37° C. with PBS-1% BSA, and 100 μl aliquots of mAb91.3 at (10 micrograms/ml) in PBS-0.1% Tween were added to the wells in the presence of the 25 mer peptides at concentration ranging from 0.001 to 100 micrograms/ml. After incubation for 2 h at 37° C., plates were again washed and incubated for 1 h at 37° C. with alkaline-phosphatase conjugated goat anti-mouse IgG (Sigma) diluted 1:2500 in PBS-Tween. Thereafter 100 μl of PNPP substrate (Sigma) were added to the samples and incubated for 30 min at room temperature and optical densities were read at 405 nm.

[3] = biological target: B3; assay: ELISA with 25 mer peptides
Procedure: as §1

[4] = biological target: B2; assay: ELISA with 25 mer peptides
Procedure: as §1

[5] = biological target: T1, FAT1 recombinant cadherin Domain 8 …; assay: SPR, Biacore T100, 25 C, FAT1 domain amine-coupled to CM5 chip, mAb91.3 injected, 1:1 Langmuir model
Procedure: (§2) The kinetics of association and dissociation and the Dissociation constants of the anti-FAT1 mAb91.3 were determined using Surface Plasmon Resonance Analysis. Experiments were performed at 25° C. with a BIACORE T100 instrument (Biacore A B, Uppsala, Sweden). The recombinant FAT1 proteins were immobilised on a carboxymethylated dextran-coated (CM5) sensor chip by amine coupling. Briefly, a mixture of 0.2 M 1-ethyl-3-[…]-carbodiimide (EDC) and 0.05 M N-hydroxysuccinimide (NHS) was used for sensor chip surface activation. Proteins pre-concentrated in 0.01 M sodium acetate pH 3.5 were injected at concentration ranging from 2.5 and 5 μg/ml for 10 min and then 1 M ethanolamine pH 8.5 was used to block any remaining activated groups. mAb91.3 was diluted in HBS-EP+buffer at different concentrations from 0.625 μg/ml to 5 μg/ml and injected for 120 s at a flow rate of […] on flow cell 2 and 3. HBS-EP+ buffer was run as control.

[6] = biological target: T2, FAT1 recombinant cadherin Domain 12 …; assay: as above
Procedure: as §2

Binder: B1
- binding result [1]: binds

Binder: B2
- IC50 (read off the curve) [1]: ~0.5 µg/mL

Binder: B3
- binding result [1]: binds

Binder: B4
- binding result [2]: binds
- binding result [3]: binds
- binding result [4]: binds
- Kd [5]: 9.52 nM
- koff [5]: 0.00313 s⁻¹
- kon [5]: 329000 M⁻¹ s⁻¹
- Kd [6]: 18.2 nM
- koff [6]: 0.00707 s⁻¹
- kon [6]: 389000 M⁻¹ s⁻¹
